This is an account of results in article PMC3526858 (Biochemical Journal, 2012).

Series [1] concerns the target EssB-N, N-terminal cytoplasmic fragment of EssB (residues 12-226) (S. aureus subsp. aureus) (UniProt Q2G185). Description: native gel or EMSA.
Series [2] has as its target EssBΔC, EssB truncated by 43 C-terminal residues, detergent-solubilised (S. aureus subsp. aureus) (UniProt Q2G185). The series can be described thus: SEC.
The series “native gel or EMSA” deals with the molecule itself. The series can be described thus: native gel or EMSA.

In general, stoichiometry N refers to the number of molecules, sites or subunits per partner or assembly. In series [1], “EssB-N, N-terminal cytoplasmic fragment of EssB (residues 12-226) (from UniProt Q2G185 12-226) (domain or fragment)” registered a stoichiometry N of 2. Consider “EssBΔC, EssB truncated by 43 C-terminal residues, detergent-solubilised (from UniProt Q2G185 1-400) (domain or fragment)”, for which, in series [2], the stoichiometry N is 2.

B1: EssB-C, C-terminal fragment of EssB (residues 257-444) (domain or fragment, S. aureus subsp. aureus)
chain: GASERIEKGYQAFVKDDYTQVLNTYDDLDGKKLDKEALYIYAKSYIQTNKQGLEKDKKENLLNNVTPNSNKDYLLYWMELGQGHLDEAINIATYLDDNDITKLALINKLNEIKNNGDLSNDKRSEETKKYNDKLQDILDKEKQVKDEKAKSEEEKAKAKDEKLKQQEENEKKQKEQAQKDKEKRQEAERKK
In the case of B1, in “native gel or EMSA”, the “stoichiometry N” value stood at 2.

B2: Full-length EssB (S. aureus), detergent-solubilised (natural protein, S. aureus subsp. aureus)
chain: GASMVKNHNPKNEMQDMLTPLDAEEAAKTKLRLDMREIPKSSIKPEHFHLMYLLEQHSPYFIDAELTELRDSFQIHYDINDNHTPFDNIKSFTKNEKLRYLLNIKNLEEVNRTRYTFVLAPDELFFTRDGLPIAKTRGLQNVVDPLPVSEAEFLTRYKALVICAFNEKQSFDALVEGNLELHKGTPFETKVIEAATLDLLTAFLDEQYQKQEQDYSQNYAYVRKVGHTVFKWVAIGMTTLSVLLIAFLAFLYFSVMKHNERIEKGYQAFVKDDYTQVLNTYDDLDGKKLDKEALYIYAKSYIQTNKQGLEKDKKENLLNNVTPNSNKDYLLYWMELGQGHLDEAINIATYLDDNDITKLALINKLNEIKNNGDLSNDKRSEETKKYNDKLQDILDKEKQVKDEKAKSEEEKAKAKDEKLKQQEENEKKQKEQAQKDKEKRQEAERKK
Take B2: the “stoichiometry N” value in the series “native gel or EMSA” was found to be 2.
